According to PMC4239610, “A Peptide Derived from G0/G1 Switch Gene 2 Acts as Noncompetitive Inhibitor of Adipose Triglyceride Lipase” (The Journal of Biological Chemistry, 2014):

Molecular target: T1, murine adipose triglyceride lipase, Strep fusion (Strep-mATGL) (mouse) (UniProt Q8BJ56)
T1 sequence: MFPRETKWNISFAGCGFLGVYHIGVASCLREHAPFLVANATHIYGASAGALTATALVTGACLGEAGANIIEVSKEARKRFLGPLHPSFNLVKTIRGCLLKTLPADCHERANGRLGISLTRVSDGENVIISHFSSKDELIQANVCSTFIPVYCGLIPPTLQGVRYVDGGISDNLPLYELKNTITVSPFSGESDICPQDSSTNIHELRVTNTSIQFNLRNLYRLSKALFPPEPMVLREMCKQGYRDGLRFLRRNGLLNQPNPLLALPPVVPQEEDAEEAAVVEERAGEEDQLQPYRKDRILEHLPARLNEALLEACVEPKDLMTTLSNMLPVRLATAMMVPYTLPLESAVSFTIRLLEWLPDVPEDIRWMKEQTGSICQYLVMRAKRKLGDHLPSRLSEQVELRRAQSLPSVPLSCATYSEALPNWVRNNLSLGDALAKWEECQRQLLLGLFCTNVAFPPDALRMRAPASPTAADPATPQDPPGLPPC

IC50 of inhibition of CGI-58-stimulated mATGL TG hydrolase activity, dose-response with full-length hG0S2: 19 nM
B1: human G0/G1 switch gene 2 protein, full length (hG0S2) (natural protein)
chain: METVQELIPLAKEMMAQKRKGKMVKLYVLGSVLALFGVVLGLMETVCSPFTAARRLRDQEAAVAELQAALERQALQKQALQEKGKQQDTVLGGRALSNRQHAS
